Measured values from patent publication US20230025707A1 (University of Pennsylvania, published 2023).

Tests used:
[1] = biological target: T1, human α-Synuclein pre-formed fibrils (human, UniProt P37840 1-140); test: sandwich ELISA; PFF vs monomer from EC50s, Syn211 as control
Description: Fibrils were then sonicated on high for 10 cycles of 30 seconds on, 30 seconds off (Diagenode Biorupter UCD-300 bath sonicator) prior to dilutions. Dilutions were added to each well (30 μL per well) and incubated overnight at 4° C. The plate was washed 4 times with PBST. 30 μL of MJF-R1 (1:3,000, Abcam Cat #ab138501) in Buffer C was added to each well and the plate was incubated for 4 hours at 37° C. After washing with PBST 4 times, 1:10 k diluted goat-anti-rabbit IgG-HRP conjugate (Cell Signaling Technology) was added to the plate and the plate was incubated for 1 hour at 37° C.
This assay retains the conformation of α-Synuclein by allowing binding of α-Synuclein that is in solution to immobilized antibody, and allows a broad range of affinity detection. Antibodies of interest were coated on an ELISA plate and either α-Synuclein monomer or PFF were incubated with the antibodies at increasing α-Synuclein concentrations to determine relative affinity of the antibodies for each form of α-Synuclein.
By fitting the absorbance values with a sigmoid dose curve, EC₅₀ values were calculated for each antibody.

[2] = biological target: T1, human α-Synuclein pre-formed fibrils; test: cell-based or functional assay
Lewy body α-Synuclein = Lewy body α-Synuclein (human, UniProt P37840 1-140); test: IHC, human amygdala; OD of Lewy bodies / OD of tissue
Excerpt: FIG. 2A: Sections of amygdala tissue containing abundant Lewy body pathology were stained using undiluted or 1:3 diluted hybridoma supernatant. […] FIG. 2B: The optical density within Lewy bodies divided by the optical density of a 1 mm² tissue section containing those Lewy bodies was defined as the Lewy Body Discrimination Index. Antibodies preferentially recognizing Lewy bodies score high on this measure.
In order to rapidly screen for antibody selectivity to pathological α-Synuclein, amygdala sections from PD patients with abundant LB pathology were immunostained. Hybridoma supernatants were used undiluted or at a 1:3 dilution on screening slides processed in parallel to allow direct comparison of immunostaining. […] A value of 1 indicates no discrimination of LBs over normal synaptic neuropil staining.

Binder	PFF Preference [1]	% Inhibition (primary neuron assay) [2] [%]	LB Discrimination Index (Lewy body α-Synuclein)
9092 (antibody, IgG1, V domains shown) VH: QVQLQQSGPELVKPGASVRISCKASGYTFTTFYLHWVKQRPGQGLEWIGWIYPVNVKIKYSERFKGKATLTADKSSSTAYMQLGSLTSEDSAVYFCVRGGRGLDYWGQGTTLTVSS VL: NIMMTQSPSSLAVSAGEKVTMSCKSSQSVLYSSNQKNYLAWYQQKPGQSPKMLIYWASFRESGVPDRFTGSGSGTDFTLTISSVQAEDLAVYYCHQYLSLFTFGSGTKLEIK	93.8	-27.9	1.9
9060 (antibody, IgG1, V domains shown) VH: EVHLVESGGGLVQPKGSLKLSCAASGFTFNTYAMHWVRQAPGKGLEWVARIRNKSNNYATYYADSVKDRFTISRDDSQSMLFLQMDNLKTEDTAIYYCVRGGLSPFDYWGQGTTLTVSS VL: QIVLTQSPAIMSASPGEKVTMTCSASSSVTYMHWYQQKSGTSPKRWIYDTSKLASGVPARFSGSGSGTSYSLTISSMEAEDAATYYCQQWSSNPPTFGGGTKLEIR	0.73	83.8	1.92
9064 (antibody, IgG1, V domains shown) VH: EVHLVESGGGLVQPKGSLKLSCAASGFTFNTYAMHWVRQAPGKGLEWVARIRNKSNNYATYYADSVKDRFTISRDDSQSMLFLQMDNLKTEDTAIYYCVRGGLSPFDYWGQGTTLTVSS VL: QIVLTQSPAIMSASPGEKVTMTCSASSSVTYMHWYQQKSGTSPKRWIYDTSKLASGVPARFSGSGSGTSYSLTISSMEAEDAATYYCQQWSSNPPTFGGGTKLEIR	0.855	88.1	1.95
9071 (antibody, IgG1, V domains shown) VH: EVHLVESGGGLVQPKGSLKLSCAASGFTFNTYAMHWVRQAPGKGLEWVARIRNKSNNYATYYADSVKDRFTISRDDSQSMLFLQMDNLKTEDTAIYYCVRGGLSPFDYWGQGTTLTVSS VL: QIVLTQSPAIMSASPGEKVTMTCSASSSVTYMHWYQQKSGTSPKRWIYDTSKLASGVPARFSGSGSGTSYSLTISSMEAEDAATYYCQQWSSNPPTFGGGTKLEIR	0.605	79.3	1.89
9003 (antibody, IgG1, V domains shown) VH: EVQLVESGGGLVQPKGSLKLSCAASGFTFNTYAMHWVRQAPGKGLEWVARIRSESNNFATYYADSVKDSFTISRDDSQSMLYLQMNNLKTEDTAVYYCVRGGLSPFDYWGQGTTLTVSS VL: QIVLTQSPAIMSASPGEKVTMTCSASSSVSYMHWYQQKSGTSPKRWIYDTSKLASGVPARFSGSGSGTSYSLTINSMEAEDAATYYCQQWSRNPPTFGGGTKLEIK	0.565	82	1.94
9004 (antibody, IgG2b, V domains shown) VH: EVHLVESGGGLVQPKGSLKLSCAASGFTFNTYAMHWVRQAPGKGLEWVARIRSKSNNYATYYADSVKDRFTISRDDSQSMLYLQMNNLKTEDTAMYYCVRGGLSPFDYWGQGTTLTVSS VL: QIVLTQSPAIMSASPGEKVTMTCSASSSVTYMHWYQQKSGTSPKRWIYDTSKLASGVPARFSGSGSGTSYSLTISSMEAEDAATYYCQQWSSNPPTFGGGTKLEIR	1.02	62.7	1.91
9014 (antibody, IgG1, V domains shown) VH: EVQLVESGGGLVQPKGSLKLSCAASGFTFNTYAMHWVRQAPGKGLEWVARIRSESNNFATYYADSVKDSFTISRDDSQSMLYLQMNNLKTEDTAVYYCVRGGLSPFDYWGQGTTLTVSS VL: QIVLTQSPAIMSASPGEKVTMTCSASSSVSYMHWYQQKSGTSPKRWIYDTSKLASGVPARFSGSGSGTSYSLTINSMEAEDAATYYCQQWSRNPPTFGGGTKLEIK	0.478	81.7	1.87
9009 (antibody, IgG1, V domains shown) VH: EVQLVESGGGLVQPKGSLKLSCAASGFTFNTYAMHWVRQAPGKGLEWVARIRSESNNFATYYADSVKDSFTISRDDSQSMLYLQMNNLKTEDTAVYYCVRGGLSPFDYWGQGTTLTVSS VL: QIVLTQSPAIMSASPGEKVTMTCSASSSVSYMHWYQQKSGTSPKRWIYDTSKLASGVPARFSGSGSGTSYSLTINSMEAEDAATYYCQQWSRNPPTFGGGTKLEIK	0.507	81	1.82
9005 (antibody, IgG1, V domains shown) VH: EVMLVESGGGLVKSGGSLKLSCAASGFTFSSYAMSWVRQTPEKRLEWVATISTGGGYTYYPDSVKGRFTISRDNAKNTLYLQMSSLRSEDTAMYYCVRRGTARGYFDVWGAGTTVTVSS VL: QIVLTQSPAIMSASPGEKVTMTCSASSSVSYMYWYQQKPESSPRLLIYDTSNLASGVPVRFSGSGSGTSYFLTISRMEAEDAATYYCQQWKTYPPTFGGGTKLEIK	1.31	90.3	1.68
9099 (antibody, IgG2b, V domains shown) VH: EVQLVESGGVLVKPGGSLKLSCAASGFTFSSFAMSWVRQTPEKRLEWVATISNGGSYTYYPDSVKGRFTISRDNAKNTLYLRMSSLRSEDTAMYYCVRRATTRGYFDYWGQGTTLTVSS VL: QIFLTQSPAIMSASPGEKVTMTCSASSSVSYMYWYQQKPGSSPRLLIYDSSKLASGVPVQFSGSGSGTSYSLTISRMEAEDAATYYCQQWRSYPPTFGAGTKLELK	5.26	85.3	1.47
9100 (antibody, IgG2b, V domains shown) VH: EVQLVESGGVLVKPGGSLKLSCAASGFTFSSFAMSWVRQTPEKRLEWVATISNGGSYTYYPDSVKGRFTISRDNAKNTLYLRMSSLRSEDTAMYYCVRRATTRGYFDYWGQGTTLTVSS VL: QIFLTQSPAIMSASPGEKVTMTCSASSSVSYMYWYQQKPGSSPRLLIYDSSKLASGVPVQFSGSGSGTSYSLTISRMEAEDAATYYCQQWRSYPPTFGAGTKLELK	2.73	91.3	1.62
9052 (antibody, IgG2b, V domains shown) VH: EVQLVESGGVLVKPGGSLKLSCAASGFTFSSFAMSWVRQTPEKRLEWVATISNGGSYTYYPDSVKGRFTISRDNAKNTLYLRMSSLRSEDTAMYYCVRRATTRGYFDYWGQGTTLTVSS VL: QIFLTQSPAIMSASPGEKVTMTCSASSSVSYMYWYQQKPGSSPRLLIYDSSKLASGVPVQFSGSGSGTSYSLTISRMEAEDAATYYCQQWRSYPPTFGAGTKLELK	1.47	84.3	1.74
9021 (antibody, IgG1, V domains shown) VH: EVMMVESGGGLVKPGGSLKLSCAASGFTFSNYAMSWVRQTPEKRLEWVATISTGGGYTYYPDSMKGRFTISRDNAKNTLYLQMSSLRSEDTAMYYCARRGTARGYFDVWGAGTTVTVSS VL: QIVLTQSPAIMSASPGEKVTMTCSASSSVSYMYWYQQKPESSPRLLIYDTSNLASGVPVRFSGSGSGTSYFLTISRMEAEDAATYYCQQWKTYPPTFGGGTKLEIK	1	84.7	1.81
9018 (antibody, IgG2b, V domains shown) VH: EVMLVESGGGLVKPGGSLKLSCAASGFTFSSYAMSWVRQTPEKRLEWVATISTGGGYTYYPDSVKGRFTVSRDNAKNTLYLQMSSLRSEDTAMYYCARRGTSRGYFDVWGAGTTVTVSS VL: QIILTQSPAIMSASPGEKVTMTCSASSSVSYMYWYQQKPESSPRLLIYDTSNLASGVPVRFSGSGSGTSYFLTISRMEAEDAATYYCQQWKTYPPTFGGGTRLEIK	1.45	86.5	1.78
9096 (antibody, IgG2b, V domains shown) VH: EVQLVESGGGLVKPGGSLKLSCAASGFTFSGYAMSWVRQTPEKRLEWVATISNGGSYTYYPDSVKGRFTISRDNAKKTLYLQMSSLRSEDTAMYYCTRRAATRGYFDYWGQGTTLTVSS VL: QIVLTQSPAIMSASPGEKVTMTCSASSSVSYMYWYQQKPGSSPRLLIYDTSKLASGVPVRFSGSGSGTSYSLTISRMEAEDAATYYCQQWRSYPPTFGAGTKLELK	1.01	85.1	1.3
9035 (antibody, IgG2b, V domains shown) VH: EVQLVESGGGLVKPGGSLKLSCGASGFTFSSFAMSWVRQTPEKRLEWVATISNGGSYTYYPDSVQGRFTISRDNAKNTLYLRMSSLRSEDTAMYYCARRSSTRGFFDYWGHGTTLTVSS VL: QIFLTQSPAIMSASPGEKVTMTCSASSSVSYMYWYQQKPGSSPRLLIYDSSKLASGVPVQFSGSGSGTSYSLTISRMEAEDAATYYCQQWRSYPPTFGAGTKLELK	2.11e+08	79	1.9
9047 (antibody, IgG2b, V domains shown) VH: EVQLVESGGGLVKPGGSLKLSCGASGFTFSSFAMSWVRQTPEKRLEWVATISNGGSYTYYPDSVKGRFTISRDNAKNTLYLRMSSLRSEDTALYYCTRRSSTRGFFDYWGPGTTLTVSS VL: QIFLTQSPAIMSASPGEKVTMTCSASSSVTYMYWYQQNPGSSPRLLIYDSSKLASGVPVRFSGSGSGTSYSLTISRMEAEDATTYYCQQWKSYPPTFGTGTKLDLK	133	84.3	2.46
